Assay results taken from PMC10039045.

Molecular target: enhanced GFP (EGFP)

t1/2 of the normalized PCC increase between mCherry-eDHFR and EGFP-mito over time in live HeLa cells with 24 uM cRGT: 7.26 min
Substance: E. coli dihydrofolate reductase (eDHFR) (from UniProt P0ABQ4 1-159) (enzyme)
